Biological target: human CCR2b with the FLAG epitope at the extreme amino-terminus, stably expressed on HEK-293 cells (Example 10B) (human), P41597
Assay: cell-based or functional assay

Sequence of human CCR2b with the FLAG epitope at the extreme amino-terminus, stably expressed on HEK-293 cells (Example 10B) (human), P41597 (P41597 whole entry): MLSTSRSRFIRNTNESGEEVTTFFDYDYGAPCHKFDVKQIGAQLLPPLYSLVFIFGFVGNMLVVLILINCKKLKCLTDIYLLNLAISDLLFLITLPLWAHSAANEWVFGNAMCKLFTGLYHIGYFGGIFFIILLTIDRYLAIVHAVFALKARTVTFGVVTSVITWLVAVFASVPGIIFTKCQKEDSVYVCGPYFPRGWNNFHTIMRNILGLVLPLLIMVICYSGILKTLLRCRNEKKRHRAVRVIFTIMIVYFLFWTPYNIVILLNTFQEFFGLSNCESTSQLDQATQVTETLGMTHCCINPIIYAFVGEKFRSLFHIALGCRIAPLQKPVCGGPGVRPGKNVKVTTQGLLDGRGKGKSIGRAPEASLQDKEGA

EC50 of intracellular calcium flux: 5 nM
B1: murine MCP-5, predicted mature 82 amino acid protein beginning with the N-terminal glycine (E. coli, PeproTech), Q62401 23-104 (ligand)
chain: GPDAVSTPVTCCYNVVKQKIHVRKLKSYRRITSSQCPREAVIFRTILDKEICADPKEKWVKNSINHLDKTSQTFILEPSCLG
